Assay results from US20190077860A1 (EISAI R AND D MANAGEMENT, published 2019).

Columns and labels:
[1] = molecular target: T1, human EphA4 extracellular region-SEAP-His protein (human, UniProt P54764 20-547); assay: competition ELISA, competitor human Ephrin A5-Fc
T1 construct: also called hEphA4-SEAP-His
Method: Antibody A obtained in Example 1 was evaluated for its inhibitory activity against the binding between human EphA4 and its human ligand according to the following steps. Each well of a 96-well plate (Nunc) was coated with an anti-alkaline phosphatase antibody (Thermo Fisher Scientific). After incubation overnight at 4° C., each well was blocked with 1% BlockAce (DS Pharma Biomedical) at room temperature for 1 hour. After washing with 0.05% Tween 20/PBS (Thermo Fisher Scientific) three times, the human EphA4 extracellular region-SEAP-His protein obtained by the method of Example 1 was added (final concentration: 10 nM) to each well and incubated at room temperature for 1 hour. After washing three times, ligands and serially diluted antibody A (0, 0.003, 0.01, 0.03, 0.1, 0.3, 1, 3, 10, 30, 100, 300, 1000, and 3000 nM) or an EphA4 inhibitor KYL peptide ([…], 0, 0.003, 0.01, 0.03, 0.1, 0.3, 1, 3, 10, 30, 100, 300, 1000, and 3000 μM, its synthesis was outsourced to Toray Research Center) were added to each well. The ligands used were biotinylated human Ephrin A5-Fc chimera (R&D Systems, final concentration: 0.7 nM) and biotinylated human Ephrin B3-Fc chimera (R&D Systems, final concentration: 2.3 nM). […] The absorbance at 450 nm was read using a microplate reader (Molecular Devices or PerkinElmer). […]

[2] = molecular target: T2, mouse EphA4 extracellular region-SEAP-His protein (mouse); assay: competition ELISA, competitor biotinylated mouse Ephrin B2-Fc; first value printed
Method: Antibody A-Fab and antibody A-F(ab′)₂ obtained in Example 5 were evaluated for their inhibitory activity against the binding between EphA4 and its ligand according to the following steps. Each well of a 96-well plate (Nunc) was coated with an anti-alkaline phosphatase antibody (Thermo Fisher Scientific). After incubation overnight at 4° C., each well was blocked with 1% BlockAce (DS Pharma Biomedical) at room temperature for 1 hour. After washing with 0.05% Tween 20/PBS (Thermo Fisher Scientific) three times, the mouse EphA4 extracellular region-SEAP-His protein obtained by the method of Example 1 was added (final concentration: 10 nM) to each well and incubated at room temperature for 1 hour. After washing three times, a ligand and serially diluted antibody A (0, 0.003, 0.01, 0.03, 0.1, 0.3, 1, 3, 10, 30, 100, 300, 1000, and 3000 nM), antibody A-Fab (0, 0.003, 0.01, 0.03, 0.1, 0.3, 1, 3, 10, 30, 100, 300, 1000, and 3000 nM), antibody A-F(ab′)₂ (0, 0.003, 0.01, 0.03, 0.1, 0.3, 1, 3, 10, 30, 100, 300, 1000, and 3000 nM), or the EphA4 inhibitor KYL peptide ([…], 0, 0.0003, 0.001, 0.003, 0.01, 0.03, 0.1, 0.3, 1, 3, 10, 30, 100, 300, 1000, and 3000 μM, its synthesis was outsourced to Toray Research Center) were added to each well. […] The absorbance at 450 nm was read using a microplate reader (Molecular Devices or PerkinElmer). […]

[3] = molecular target: T2, mouse EphA4 extracellular …; assay: SPR (Biacore T200), mouse EphA4 extracellular region-SEAP-His captured on an anti-His antibody CM5 chip, antibody as analyte at 0.6-50 nM, 1:1 fit
Method: Next, the binding affinity of antibody A-Fab and antibody A-F(ab′)₂ for mouse and human EphA4 was determined by surface plasmon resonance (SPR) using Biacore T200 (GE Healthcare). Antibody A obtained in Example 1 was used as a control for the comparison of each fragment. First, an anti-His tag antibody was immobilized on sensor chip CM5. The immobilization of the anti-His tag antibody on sensor chip CM5 was performed by the amine coupling method using N-hydroxysuccinimide (NHS) and N-ethyl-N′-(3-dimethylaminopropyl)carbodiimide hydrochloride (EDC). Ethanolamine was used in blocking (the sensor chip and the reagents for immobilization were all manufactured by GE Healthcare). The antibody was diluted with a buffer solution for immobilization (10 mM sodium acetate, pH 4.5) into 3 μg/mL and immobilized on the sensor chip according to the protocol attached to Biacore T200.
Mouse or human EphA4 extracellular region-SEAP-His protein was diluted with a running buffer solution HBS-EP (GE Healthcare, BR-1001-88), injected onto a flow cell for 120 seconds, and captured (amount of the protein captured: approximately 10 to 20 RU). Subsequently, antibody A (50, 16.7, 5.6, 1.9, 0.6, and 0 nM), antibody A-Fab (500, 166.7, 55.6, 18.5, 6.2, and 0 nM), or antibody A-F(ab′)₂ (50, 16.7, 5.6, 1.9, 0.6, and 0 nM) serially diluted using HBS-EP was added to the sensor chip for 120 seconds. Binding reaction curves were sequentially observed at the time of the addition (association phase, for 120 sec) and after the completion of the addition (dissociation phase, for 900 sec). After the completion of each observation, the sensor chip was regenerated by the addition of 3 M MgCl₂ (Wako Pure Chemical Industries) (for 30 sec). The obtained binding reaction curves were subjected to fitting analysis with 1:1 binding models using software BIA evaluation attached to the system to calculate the binding affinity (KD=kd/ka) for mouse and human EphA4.

T2 sequence (chain, as listed by the source limits assumed): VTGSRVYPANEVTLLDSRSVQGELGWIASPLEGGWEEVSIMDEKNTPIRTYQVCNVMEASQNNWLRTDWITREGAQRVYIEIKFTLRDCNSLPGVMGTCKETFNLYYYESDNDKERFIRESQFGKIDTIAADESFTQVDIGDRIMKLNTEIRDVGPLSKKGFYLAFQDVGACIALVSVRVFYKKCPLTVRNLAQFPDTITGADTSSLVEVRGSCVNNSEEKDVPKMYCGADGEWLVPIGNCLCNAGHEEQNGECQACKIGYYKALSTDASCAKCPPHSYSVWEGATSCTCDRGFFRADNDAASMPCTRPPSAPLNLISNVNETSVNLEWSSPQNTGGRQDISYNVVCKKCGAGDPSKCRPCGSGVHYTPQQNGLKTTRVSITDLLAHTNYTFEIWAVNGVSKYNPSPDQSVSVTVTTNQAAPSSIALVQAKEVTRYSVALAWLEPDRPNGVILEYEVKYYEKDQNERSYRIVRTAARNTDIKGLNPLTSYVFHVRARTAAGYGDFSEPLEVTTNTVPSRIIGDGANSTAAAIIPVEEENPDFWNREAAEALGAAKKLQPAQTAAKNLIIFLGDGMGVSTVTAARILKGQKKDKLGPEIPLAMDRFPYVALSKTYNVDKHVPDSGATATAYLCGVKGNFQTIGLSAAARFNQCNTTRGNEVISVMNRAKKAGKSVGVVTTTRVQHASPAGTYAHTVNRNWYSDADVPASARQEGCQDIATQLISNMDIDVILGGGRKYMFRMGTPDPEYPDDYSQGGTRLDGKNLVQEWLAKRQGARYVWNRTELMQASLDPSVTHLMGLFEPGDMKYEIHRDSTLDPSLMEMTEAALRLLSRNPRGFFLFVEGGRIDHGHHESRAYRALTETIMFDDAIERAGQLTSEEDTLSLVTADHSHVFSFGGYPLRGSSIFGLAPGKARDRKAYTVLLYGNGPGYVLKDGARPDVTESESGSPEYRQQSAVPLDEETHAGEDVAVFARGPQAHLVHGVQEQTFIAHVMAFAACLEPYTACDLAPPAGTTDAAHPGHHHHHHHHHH
T1 sequence (P54764 20-547): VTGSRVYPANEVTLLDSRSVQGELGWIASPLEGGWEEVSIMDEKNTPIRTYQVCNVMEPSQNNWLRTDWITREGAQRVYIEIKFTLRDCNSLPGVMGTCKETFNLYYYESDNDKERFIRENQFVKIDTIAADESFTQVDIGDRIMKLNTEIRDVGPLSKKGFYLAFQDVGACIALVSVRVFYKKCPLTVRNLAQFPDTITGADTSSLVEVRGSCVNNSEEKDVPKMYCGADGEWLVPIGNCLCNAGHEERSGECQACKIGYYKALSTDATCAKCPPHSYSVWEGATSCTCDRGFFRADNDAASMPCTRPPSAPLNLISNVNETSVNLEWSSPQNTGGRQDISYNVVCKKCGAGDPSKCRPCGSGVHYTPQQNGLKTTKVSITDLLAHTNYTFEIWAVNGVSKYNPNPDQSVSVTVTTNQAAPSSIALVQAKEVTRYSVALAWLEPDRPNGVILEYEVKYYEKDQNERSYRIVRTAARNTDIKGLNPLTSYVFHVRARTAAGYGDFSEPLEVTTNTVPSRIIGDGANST

B1: antibody A (antibody, mouse IgG1, kappa, V domains shown)
VH: QIQLVQSGPELKKPGETVKISCKASGYTFTDYSMHWVKQAPGKGLKWMGWINTETGEPTYADDFKGRFAFSLETSASTAYLQINNLKNEDTATYFCARIPLYYYGSRYWYFDVWGAGTTVTVSS
VL: DIQMTQSPASLSVSVGETVTITCRASENIYRNLAWYQQKQGKSPQLLVYAATNLADGVPSRFSGSGSGTQYSLKINSLQSEDFGSYYCQHFWGTPWTFGGGTKLEIKR
notes: mouse IgG1 heavy chain, kappa light chain; purified from hybridoma supernatant; also called anti-EphA4 monoclonal antibody; antibody A-IgG
IC50 [1]: ~2.7 nM | IC50 [2]: 2.6 nM | Kd [3]: 0.147 nM | koff [3]: 0.000423 s⁻¹ | kon [3]: 2.88e+06 M⁻¹ s⁻¹
